T1: Sec8-His (section 8 (Sec8), an antigenic region of CSP-1, tagged with a polyhistidine (His) tag)
T1 construct: also called Sec8-His antigen
T1 chain: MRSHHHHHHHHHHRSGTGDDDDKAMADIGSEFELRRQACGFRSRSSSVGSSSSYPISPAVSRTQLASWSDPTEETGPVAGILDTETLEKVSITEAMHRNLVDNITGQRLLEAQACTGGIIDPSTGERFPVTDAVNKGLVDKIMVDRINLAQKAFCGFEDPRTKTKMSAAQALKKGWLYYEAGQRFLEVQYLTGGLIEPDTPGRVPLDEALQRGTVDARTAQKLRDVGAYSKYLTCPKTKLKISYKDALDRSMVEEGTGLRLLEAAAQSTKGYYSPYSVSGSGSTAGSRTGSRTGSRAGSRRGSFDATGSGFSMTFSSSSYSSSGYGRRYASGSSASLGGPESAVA


Target: T1, Sec8-His (section 8 (Sec8), an …)
Assay: BLI (Octet), single shot: antibody on anti-human IgG tips, 24 nM Sec8-His
Protocol: After humanization, the antibodies were tested for their capability to bind to an antigenic region of CSP-1 called section 8 (Sec8). Antigen binding was assessed by single-shot Octet analysis. Antibodies were loaded onto anti-human IgG tips, and the loaded tips were dipped into wells containing the Sec8-His antigen. Scouting experiments were used to determine ideal conditions for loading (10 minute incubation in 1 μg/mL IgG) and antigen binding (5 minute incubation in 24 nM Sec8-His, followed by a 5 minute dissociation step in buffer). Two negative controls were included with each experiment. First, a tip was loaded with irrelevant IgG dipped into 24 nM Sec8-His to control for non-specific interactions between the tip and the antigen. Next, tips loaded with humanized 1D7 variants were dipped into 24 nM GST-His to control for off-target binding of the antibody (a significant risk if a given variant is destabilized and/or exposes significant hydrophobic surface). The data from the irrelevant IgG control were subtracted from the data obtained with the […]-loaded tips. The mean and standard deviation of the signal change values for the GST-His control wells were used to calculate a threshold for positive binding (mean+3 standard deviations of the GST-His signal). Variants that were below this threshold are considered to have no specific binding to Sec8.

Binder | binding result
humanized anti-CSP-1 antibody, Antibody Number 16 (Table 1) (antibody, human IgG1, V domains shown, also called Antibody 16) VH: EVQLVESGGDLVKPGGSLKLSCAASGFTFSRYGMSWVRQTPDKRLEWVATISIGGTYTYYPDSMKGRFTISRDNAKNTLYLQMSSLKSEDTAMYYCARRGYGNYSYYGMDYWGQGTSVTVSS VL: DIVMTQAAFSNPVTLGTSASISCRSSKSLLHSNGITYLYWYLQKPGQSPQLLIYQMSNLASGVPDRFSSSGSGTDFTLRISRVEAEDVGVYYCAQNLELPLTFGAGTKLELK | binds
humanized anti-CSP-1 antibody, Antibody Number 19 (Table 1) (antibody, human IgG1, V domains shown, also called Antibody 19) VH: EVQLVESGGDLVKPGGSLKLSCAASGFTFSRYGMSWVRQTPDKRLEWVATISIGGTYTYYPDSMKGRFTISRDNAKNTLYLQMSSLKSEDTAMYYCARRGYGNYSYYGLDYWGQGTSVTVSS VL: DIVMTQAAFSNPVTLGTSASISCRSSKSLLHSNGITYLYWYLQKPGQSPQLLIYQMSNLASGVPDRFSSSGSGTDFTLRISRVEAEDVGVYYCAQNLELPLTFGAGTKLELK | binds
humanized anti-CSP-1 antibody, Antibody Number 21 (Table 1) (antibody, human IgG1, V domains shown, also called Antibody 21) VH: EVQLVESGGDLVKPGGSLKLSCAASGFTFSRYGMSWVRQTPDKRLEWVATISIGGTYTYYPDSMKGRFTISRDNAKNTLYLQMSSLKSEDTAMYYCARRGYGNYSYYGVDYWGQGTSVTVSS VL: DIVMTQAAFSNPVTLGTSASISCRSSKSLLHSNGITYLYWYLQKPGQSPQLLIYQMSNLASGVPDRFSSSGSGTDFTLRISRVEAEDVGVYYCAQNLELPLTFGAGTKLELK | binds
humanized anti-CSP-1 antibody, Antibody Number 18 (Table 1) (antibody, human IgG1, V domains shown, also called Antibody 18) VH: EVQLVESGGDLVKPGGSLKLSCAASGFTFSRYGMSWVRQTPDKRLEWVATISIGGTYTYYPDSMKGRFTISRDNAKNTLYLQMSSLKSEDTAMYYCARRGYGQYSYYGMDYWGQGTSVTVSS VL: DIVMTQAAFSNPVTLGTSASISCRSSKSLLHSNGITYLYWYLQKPGQSPQLLIYQMSNLASGVPDRFSSSGSGTDFTLRISRVEAEDVGVYYCAQNLELPLTFGAGTKLELK | binds
humanized anti-CSP-1 antibody, Antibody Number 17 (Table 1) (antibody, human IgG1, V domains shown, also called Antibody 17) VH: EVQLVESGGDLVKPGGSLKLSCAASGFTFSRYGMSWVRQTPDKRLEWVATISIGGTYTYYPDSMKGRFTISRDNAKNTLYLQMSSLKSEDTAMYYCARRGYGSYSYYGMDYWGQGTSVTVSS VL: DIVMTQAAFSNPVTLGTSASISCRSSKSLLHSNGITYLYWYLQKPGQSPQLLIYQMSNLASGVPDRFSSSGSGTDFTLRISRVEAEDVGVYYCAQNLELPLTFGAGTKLELK | binds
humanized anti-CSP-1 antibody, Antibody Number 20 (Table 1) (antibody, human IgG1, V domains shown, also called Antibody 20) VH: EVQLVESGGDLVKPGGSLKLSCAASGFTFSRYGMSWVRQTPDKRLEWVATISIGGTYTYYPDSMKGRFTISRDNAKNTLYLQMSSLKSEDTAMYYCARRGYGNYSYYGIDYWGQGTSVTVSS VL: DIVMTQAAFSNPVTLGTSASISCRSSKSLLHSNGITYLYWYLQKPGQSPQLLIYQMSNLASGVPDRFSSSGSGTDFTLRISRVEAEDVGVYYCAQNLELPLTFGAGTKLELK | binds
humanized anti-CSP-1 antibody, Antibody Number 2 (Table 1) (antibody, human IgG1, V domains shown, also called Antibody 2) VH: QIQLVQSGPELKKPGETVKISCKASGYTFTDYSMHWVKQAPGKGLKWMGWIQTETGEPTYADDFKGRFAFSLETSASTAYLQINNLKNEDTATYFCAPGGFAYWGQGTLVTVSA VL: DIVMTQAAPSVPVTPGESVSISCRSSKSLLHSNGNTYLYWFLQRPGQSPQLLIYRMSNLASGVPDRFSGSGSGTAFTLRISRVEAEDVGVYYCMQHLEYPLTFGAGTKLELK | binds
humanized anti-CSP-1 antibody, Antibody Number 11 (Table 1) (antibody, human IgG1, V domains shown, also called Antibody 11) VH: QIQLVQSGPEVKKPGASVKISCKASGYTFTDYSMHWVKQAPGQGLKWMGWINTETGEPTYADDFKGRFTFTLDTSTSTAYLEISSLRSEDTATYFCAPGGFAYWGQGTLVTVSS VL: DIVMTQSAPSVPVTPGQSVSISCRSSKSLLHSNGNTYLYWFLQKPGQSPQLLIYRMSNRASGVPDRFSGSGSGTDFTLKISRVEAEDVGVYYCMQHLEYPLTFGQGTKLEIK | binds
humanized anti-CSP-1 antibody, Antibody Number 15 (Table 1) (antibody, human IgG1, V domains shown, also called Antibody 15) VH: QIQLVQSGPGLKQPGGSVRISCAASGYTFTDYSMHWVKQAPGKGLKWMGWINTETGEPTYADDFKGRFTFSLDTSKSTAYLQINSLRAEDTATYFCAPGGFAYWGQGTLVTVSS VL: DIVMTQSAPSLPVTPGQSVSISCRSSKSLLHSNGNTYLYWFLQKPGQSPQLLIYRMSNRASGVPDRFSGSGSGTDFTLKISRVEAEDVGVYYCMQHLEYPLTFGQGTKLEIK | binds
humanized anti-CSP-1 antibody, Antibody Number 3 (Table 1) (antibody, human IgG1, V domains shown, also called Antibody 3) VH: QIQLVQSGPELKKPGETVKISCKASGYTFTDYSMHWVKQAPGKGLKWMGWINTETGEPTYADDFKGRFAFSLETSASTAYLQINNLKNEDTATYFCAPGGFAYWGQGTLVTVSA VL: DIVMTQAAPSVPVTPGESVSISCRSSKSLLHSSGNTYLYWFLQRPGQSPQLLIYRMSNLASGVPDRFSGSGSGTAFTLRISRVEAEDVGVYYCMQHLEYPLTFGAGTKLELK | binds
humanized anti-CSP-1 antibody, Antibody Number 9 (Table 1) (antibody, human IgG1, V domains shown, also called Antibody 9) VH: QIQLVQSGPELKKPGETVKISCKASGYTFTDYSMHWVKQAPGKGLKWMGWINTETGEPTYADDFKGRFAFSLETSASTAYLQINNLKNEDTATYFCAPGGFAYWGQGTLVTVSA VL: DIVMTQSAPSVPVTPGQSVSISCRSSKSLLHSNGNTYLYWFLQKPGQSPQLLIYRMSNRASGVPDRFSGSGSGTDFTLKISRVEAEDVGVYYCMQHLEYPLTFGQGTKLEIK | binds
humanized anti-CSP-1 antibody, Antibody Number 14 (Table 1) (antibody, human IgG1, V domains shown, also called Antibody 14) VH: QIQLVQSGPGLKQPGGSVRISCAASGYTFTDYSMHWVKQAPGKGLKWMGWINTETGEPTYADDFKGRFTFSLDTSKSTAYLQINSLRAEDTATYFCAPGGFAYWGQGTLVTVSS VL: DIVMTQSAPSVPVTPGQSVSISCRSSKSLLHSNGNTYLYWFLQKPGQSPQLLIYRMSNRASGVPDRFSGSGSGTDFTLKISRVEAEDVGVYYCMQHLEYPLTFGQGTKLEIK | binds
humanized anti-CSP-1 antibody, Antibody Number 5 (Table 1) (antibody, human IgG1, V domains shown, also called Antibody 5) VH: QIQLVQSGPELKKPGETVKISCKASGYTFTDYSMHWVKQAPGKGLKWMGWINTETGEPTYADDFKGRFAFSLETSASTAYLQINNLKNEDTATYFCAPGGFAYWGQGTLVTVSA VL: DIVMTQAAPSVPVTPGESVSISCRSSKSLLHSNGNTYLYWFLQRPGQSPQLLIYRLSNLASGVPDRFSGSGSGTAFTLRISRVEAEDVGVYYCMQHLEYPLTFGAGTKLELK | binds
humanized anti-CSP-1 antibody, Antibody Number 12 (Table 1) (antibody, human IgG1, V domains shown, also called Antibody 12) VH: QIQLVQSGPEVKKPGASVKISCKASGYTFTDYSMHWVKQAPGQGLKWMGWINTETGEPTYADDFKGRFTFTLDTSTSTAYLEISSLRSEDTATYFCAPGGFAYWGQGTLVTVSS VL: DIVMTQSAPSLPVTPGQSVSISCRSSKSLLHSNGNTYLYWFLQKPGQSPQLLIYRMSNRASGVPDRFSGSGSGTDFTLKISRVEAEDVGVYYCMQHLEYPLTFGQGTKLEIK | binds
humanized anti-CSP-1 antibody, Antibody Number 13 (Table 1) (antibody, human IgG1, V domains shown, also called Antibody 13) VH: QIQLVQSGPEVKKPGASVKISCKASGYTFTDYSMHWVRQAPGQGLEWMGWINTETGEPTYAQKFQGRFTFTLDTSTSTAYLEISSLRSEDTAVYFCAPGGFAYWGQGTLVTVSS VL: DIVMTQSAPSVPVTPGQSVSISCRSSKSLLHSNGNTYLYWFLQKPGQSPQLLIYRMSNRASGVPDRFSGSGSGTDFTLKISRVEAEDVGVYYCMQHLEYPLTFGQGTKLEIK | binds
humanized anti-CSP-1 antibody, Antibody Number 4 (Table 1) (antibody, human IgG1, V domains shown, also called Antibody 4) VH: QIQLVQSGPELKKPGETVKISCKASGYTFTDYSMHWVKQAPGKGLKWMGWINTETGEPTYADDFKGRFAFSLETSASTAYLQINNLKNEDTATYFCAPGGFAYWGQGTLVTVSA VL: DIVMTQAAPSVPVTPGESVSISCRSSKSLLHSNGNTYLYWFLQRPGQSPQLLIYRVSNLASGVPDRFSGSGSGTAFTLRISRVEAEDVGVYYCMQHLEYPLTFGAGTKLELK | binds
humanized anti-CSP-1 antibody, Antibody Number 7 (Table 1) (antibody, human IgG1, V domains shown, also called Antibody 7) VH: QIQLVQSGPEVKKPGASVKISCKASGYTFTDYSMHWVKQAPGQGLKWMGWINTETGEPTYADDFKGRFTFTLDTSTSTAYLEISSLRSEDTATYFCAPGGFAYWGQGTLVTVSS VL: DIVMTQAAPSVPVTPGESVSISCRSSKSLLHSNGNTYLYWFLQRPGQSPQLLIYRMSNLASGVPDRFSGSGSGTAFTLRISRVEAEDVGVYYCMQHLEYPLTFGAGTKLELK | binds
humanized anti-CSP-1 antibody, Antibody Number 10 (Table 1) (antibody, human IgG1, V domains shown, also called Antibody 10) VH: QIQLVQSGPELKKPGETVKISCKASGYTFTDYSMHWVKQAPGKGLKWMGWINTETGEPTYADDFKGRFAFSLETSASTAYLQINNLKNEDTATYFCAPGGFAYWGQGTLVTVSA VL: DIVMTQSAPSLPVTPGQSVSISCRSSKSLLHSNGNTYLYWFLQKPGQSPQLLIYRMSNRASGVPDRFSGSGSGTDFTLKISRVEAEDVGVYYCMQHLEYPLTFGQGTKLEIK | binds
humanized anti-CSP-1 antibody, Antibody Number 6 (Table 1) (antibody, human IgG1, V domains shown, also called Antibody 6) VH: QIQLVQSGPELKKPGETVKISCKASGYTFTDYSMHWVKQAPGKGLKWMGWINTETGEPTYADDFKGRFAFSLETSASTAYLQINNLKNEDTATYFCAPGGFAYWGQGTLVTVSA VL: DIVMTQAAPSVPVTPGESVSISCRSSKSLLHSNGNTYLYWFLQRPGQSPQLLIYRISNLASGVPDRFSGSGSGTAFTLRISRVEAEDVGVYYCMQHLEYPLTFGAGTKLELK | binds

— patent US20250011418A1 (ZIELBIO, published 2025)
